Results from EP2149585A1.
Read-outs that look alike come from different tables or passages of the source.

Tests used:
Assay in all cases: cell-based or functional assay
[1] = target: human CD40 on B cells in PBMC from normal human subjects (human) (UniProt P25942)
[2] = target: human CD40 on B cells within PBMC from normal human subjects (human) (UniProt P25942)
[3] = target: human CD40 on normal human B cells / PBMC (human) (UniProt P25942)
[4] = target: human CD40 on normal human B cells / PBMC (human) (UniProt P25942); remark: listed apart in the source
[5] = target: human CD40 on the cell surface (human) (UniProt P25942)
[6] = target: CD20 on the cell surface (human) (UniProt P11836)
CD20 on the cell surface (human), sequence (P11836 whole entry): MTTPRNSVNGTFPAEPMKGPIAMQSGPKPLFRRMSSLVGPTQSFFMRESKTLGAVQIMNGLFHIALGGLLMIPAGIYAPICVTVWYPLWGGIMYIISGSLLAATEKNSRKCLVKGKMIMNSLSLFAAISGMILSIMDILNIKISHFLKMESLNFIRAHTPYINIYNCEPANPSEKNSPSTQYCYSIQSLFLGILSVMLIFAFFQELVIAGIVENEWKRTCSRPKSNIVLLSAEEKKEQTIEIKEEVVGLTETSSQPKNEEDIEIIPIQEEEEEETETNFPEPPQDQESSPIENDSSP

human CD40 on B cells within PBMC from normal human subjects (human), sequence (P25942 20-277): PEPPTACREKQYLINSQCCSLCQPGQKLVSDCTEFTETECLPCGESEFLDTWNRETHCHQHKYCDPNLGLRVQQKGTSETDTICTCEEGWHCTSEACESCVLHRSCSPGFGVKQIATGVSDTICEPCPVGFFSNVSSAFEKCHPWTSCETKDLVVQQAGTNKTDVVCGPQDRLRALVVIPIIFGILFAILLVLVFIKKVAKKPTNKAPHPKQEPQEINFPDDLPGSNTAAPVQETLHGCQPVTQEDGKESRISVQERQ
human CD40 on normal human B cells / PBMC (human), sequence (P25942 20-277): as above
human CD40 on B cells in PBMC from normal human subjects (human), sequence (P25942 20-277): as above
human CD40 on the cell surface (human), sequence (P25942 20-277): as above

Substance: CD40 ligand expressed on formaldehyde-fixed CHO cells (from UniProt P29965 1-261)
- Average SI of PBMC, index(1), PBMC+CHO-CD40L [1]: 5.09
- CPM, PBMC+CHO-CD40L (PBMC-010) [1]: 5280 CPM
- CPM, PBMC+CHO-CD40L (PBMC-011 Donor#1) [1]: 8250 CPM
- CPM, PBMC+CHO-CD40L (PBMC-011 Donor#2) [1]: 11600 CPM
- CPM, PBMC+CHO-CD40L (PBMC-011 Donor#3) [1]: 7960 CPM
- CPM, PBMC+CHO-CD40L (PBMC-011 Donor#4) [1]: 14300 CPM
- CPM, PBMC+CHO-CD40L (PBMC-014) [1]: 8790 CPM
- CPM, PBMC+CHO-CD40L (PBMC-015 Donor#1) [1]: 12900 CPM
- CPM, PBMC+CHO-CD40L (PBMC-015 Donor#2) [1]: 19100 CPM
- CPM, PBMC+CHO-CD40L (PBMC-015 Donor#3) [1]: 19800 CPM
- CPM, PBMC+CHO-CD40L (PBMC-016) [1]: 15800 CPM
- index(1), PBMC+CHO-CD40L (PBMC-010) [1]: 3.73
- index(1), PBMC+CHO-CD40L (PBMC-011 Donor#1) [1]: 3.86
- index(1), PBMC+CHO-CD40L (PBMC-011 Donor#2) [1]: 4.87
- index(1), PBMC+CHO-CD40L (PBMC-011 Donor#3) [1]: 2.46
- index(1), PBMC+CHO-CD40L (PBMC-011 Donor#4) [1]: 3.41
- index(1), PBMC+CHO-CD40L (PBMC-014) [1]: 3.74
- index(1), PBMC+CHO-CD40L (PBMC-015 Donor#1) [1]: 3.94
- index(1), PBMC+CHO-CD40L (PBMC-015 Donor#2) [1]: 3.14
- index(1), PBMC+CHO-CD40L (PBMC-015 Donor#3) [1]: 8
- index(1), PBMC+CHO-CD40L (PBMC-016) [1]: 13.8
- Average SI of PBMC, index(1) [2]: 11.9
- Average Stimulation index, S.index (1) [2]: 22
- PBMC proliferation CPM (PBMC+CHO-CD40L), Immoblize-004 [2]: 11700 CPM
- PBMC proliferation CPM (PBMC+CHO-CD40L), PBMC-012 [2]: 6810 CPM
- PBMC proliferation CPM (PBMC+CHO-CD40L), PBMC-025 Donor#1 [2]: 42300 CPM
- PBMC proliferation CPM (PBMC+CHO-CD40L), PBMC-025 Donor#2 [2]: 15000 CPM
- PBMC proliferation CPM (PBMC+CHO-CD40L), PBMC-026 Donor#1 [2]: 18300 CPM
- PBMC proliferation CPM (PBMC+CHO-CD40L), PBMC-026 Donor#2 [2]: 18100 CPM
- PBMC proliferation CPM (PBMC+CHO-CD40L), PBMC-027 Donor#1 [2]: 13000 CPM
- PBMC proliferation CPM (PBMC+CHO-CD40L), PBMC-027 Donor#2 [2]: 11900 CPM
- PBMC proliferation CPM (PBMC+CHO-CD40L), PBMC-028 Donor#1 [2]: 22500 CPM
- PBMC proliferation CPM (PBMC+CHO-CD40L), PBMC-028 Donor#2 [2]: 54900 CPM
- PBMC proliferation CPM (PBMC+CHO-CD40L), PBMC-029 Donor#1 [2]: 10100 CPM
- PBMC proliferation CPM (PBMC+CHO-CD40L), PBMC-029 Donor#2 [2]: 23100 CPM
- PBMC proliferation CPM (PBMC+CHO-CD40L), PBMC-030 Donor#1 [2]: 57200 CPM
- PBMC proliferation CPM (PBMC+CHO-CD40L), PBMC-030 Donor#2 [2]: 53900 CPM
- PBMC proliferation CPM (PBMC+CHO-CD40L), PBMC-032 Donor#1 [2]: 15300 CPM
- PBMC proliferation S.index (1), Immoblize-004 [2]: 13.7
- PBMC proliferation S.index (1), PBMC-012 [2]: 30.3
- PBMC proliferation index(1), PBMC-025 Donor#1 [2]: 10.4
- PBMC proliferation index(1), PBMC-025 Donor#2 [2]: 6.63
- PBMC proliferation index(1), PBMC-026 Donor#1 [2]: 8.78
- PBMC proliferation index(1), PBMC-026 Donor#2 [2]: 26.7
- PBMC proliferation index(1), PBMC-027 Donor#1 [2]: 4.75
- PBMC proliferation index(1), PBMC-027 Donor#2 [2]: 8.89
- PBMC proliferation index(1), PBMC-028 Donor#1 [2]: 5.26
- PBMC proliferation index(1), PBMC-028 Donor#2 [2]: 25.6
- PBMC proliferation index(1), PBMC-029 Donor#1 [2]: 16.5
- PBMC proliferation index(1), PBMC-029 Donor#2 [2]: 2.99
- PBMC proliferation index(1), PBMC-030 Donor#1 [2]: 13.7
- PBMC proliferation index(1), PBMC-030 Donor#2 [2]: 16.2
- PBMC proliferation index(1), PBMC-032 Donor#1 [2]: 8.45
- CPM, B cells + CHO-CD40L; B cell-004 donor 2 [3]: 27200 CPM
- CPM, B cells+CHO-CD40L; B cell-004 donor 1 [3]: 3130 CPM
- CPM, B cells+CHO-CD40L; B cell-005 donor 3 [3]: 24600 CPM
- CPM, PBMC+CHO-CD40L (tritiated thymidine); PBMC-025 Donor#1 [3]: 42300 CPM
- CPM, PBMC+CHO-CD40L (tritiated thymidine); PBMC-025 Donor#2 [3]: 15000 CPM
- CPM, PBMC+CHO-CD40L (tritiated thymidine); PBMC-026 Donor#1 [3]: 19100 CPM
- CPM, PBMC+CHO-CD40L (tritiated thymidine); PBMC-026 Donor#2 [3]: 17800 CPM
- CPM, PBMC+CHO-CD40L (tritiated thymidine); PBMC-028 Donor#1 [3]: 22500 CPM
- CPM, PBMC+CHO-CD40L (tritiated thymidine); PBMC-028 Donor#2 [3]: 54900 CPM
- CPM, PBMC+CHO-CD40L (tritiated thymidine); PBMC-029 Donor#1 [3]: 10100 CPM
- CPM, PBMC+CHO-CD40L (tritiated thymidine); PBMC-029 Donor#2 [3]: 23100 CPM
- CPM, PBMC+CHO-CD40L (tritiated thymidine); PBMC-030 Donor#1 [3]: 53400 CPM
- CPM, PBMC+CHO-CD40L (tritiated thymidine); PBMC-030 Donor#2 [3]: 53800 CPM
- CPM, PBMC+CHO-CD40L (tritiated thymidine); PBMC-032 Donor#1 [3]: 14100 CPM
- Average Stimulation Index (SI), B cells+CHO-CD40L [4]: 145
- CPM, B cells+CHO-CD40L; B cell-004 donor 1 [4]: 3130 CPM
- CPM, B cells+CHO-CD40L; B cell-005 donor 3 [4]: 24600 CPM
- CPM, B cells+CHO-CD40L; donor 2 [4]: 27200 CPM
- S. index(1) = CPM (B cells+CHO-CD40L)/CPM (B cells alone); B cell-004 donor 1 [4]: 7.49
- S. index(1) = CPM (B cells+CHO-CD40L)/CPM (B cells alone); B cell-005 donor 3 [4]: 92
- S. index(1) = CPM (B cells+CHO-CD40L)/CPM (B cells alone); donor 2 [4]: 336

Substance: CD40 ligand on formaldehyde-fixed CHO cells (from UniProt P29965 1-261)
- average stimulation index (SI) of PBMC proliferation [5]: 7.41

Substance: rituximab (antibody)
- % lysis - % lysis IgG1; ADCC-006, huNK E:T 2, 0.01 ug/ml [6]: 33%
- % lysis - % lysis IgG1; ADCC-006, huNK E:T 2, 0.1 ug/ml [6]: 44.6%
- % lysis - % lysis IgG1; ADCC-006, huNK E:T 2, 1 ug/ml [6]: 45.7%
- % lysis - % lysis IgG1; ADCC-006, huNK E:T 2, 10 ug/ml [6]: 37.9%
- % lysis - % lysis IgG1; ADCC-009 Calcein AM, huNK E:T 10, 0.04 ug/ml [6]: 81.5%
- % lysis - % lysis IgG1; ADCC-009 Calcein AM, huNK E:T 10, 0.2 ug/ml [6]: 90.2%
- % lysis - % lysis IgG1; ADCC-009 Calcein AM, huNK E:T 10, 1 ug/ml [6]: 87.7%
- % lysis - % lysis IgG1; ADCC-009 Calcein AM, huNK E:T 10, 5 ug/ml [6]: 83.9%
- % lysis - % lysis IgG1; ADCC-011 Calcein AM, huNK E:T 8, 0.0004 ug/ml [6]: -1.04%
- % lysis - % lysis IgG1; ADCC-011 Calcein AM, huNK E:T 8, 0.002 ug/ml [6]: 4.16%
- % lysis - % lysis IgG1; ADCC-011 Calcein AM, huNK E:T 8, 0.01 ug/ml [6]: 10.1%
- % lysis - % lysis IgG1; ADCC-011 Calcein AM, huNK E:T 8, 1 ug/ml [6]: 19.3%
- % lysis - % lysis IgG1; ADCC-012 Calcein AM, huNK E:T 10, 0.001 ug/ml [6]: 21.1%
- % lysis - % lysis IgG1; ADCC-012 Calcein AM, huNK E:T 10, 0.005 ug/ml [6]: 25.7%
- % lysis - % lysis IgG1; ADCC-012 Calcein AM, huNK E:T 10, 0.01 ug/ml [6]: 37.9%
- % lysis - % lysis IgG1; ADCC-012 Calcein AM, huNK E:T 10, 1 ug/ml [6]: 52.5%
- % lysis - % lysis IgG1; ADCC-012 Calcein AM, huNK E:T 10, 10 ug/ml [6]: 37.4%
- % lysis - % lysis IgG1; ADCC-013 51Cr, PBMC E:T 100, 0.001 ug/ml [6]: 0.35%
- % lysis - % lysis IgG1; ADCC-013 51Cr, PBMC E:T 100, 0.01 ug/ml [6]: 9.87%
- % lysis - % lysis IgG1; ADCC-013 51Cr, PBMC E:T 100, 0.1 ug/ml [6]: 24.7%
- % lysis - % lysis IgG1; ADCC-013 51Cr, PBMC E:T 100, 1 ug/ml [6]: 29.7%
- % lysis; ADCC-006, huNK E:T 2, 0.01 ug/ml [6]: 28.5%
- % lysis; ADCC-006, huNK E:T 2, 0.1 ug/ml [6]: 33.6%
- % lysis; ADCC-006, huNK E:T 2, 1 ug/ml [6]: 37.1%
- % lysis; ADCC-006, huNK E:T 2, 10 ug/ml [6]: 34.8%
- % lysis; ADCC-009 Calcein AM, huNK E:T 10, 0.04 ug/ml [6]: 84.9%
- % lysis; ADCC-009 Calcein AM, huNK E:T 10, 0.2 ug/ml [6]: 88.8%
- % lysis; ADCC-009 Calcein AM, huNK E:T 10, 1 ug/ml [6]: 88.2%
- % lysis; ADCC-011 Calcein AM, huNK E:T 8, 0.0004 ug/ml [6]: 5.99%
- % lysis; ADCC-011 Calcein AM, huNK E:T 8, 0.002 ug/ml [6]: 9.58%
- % lysis; ADCC-011 Calcein AM, huNK E:T 8, 0.01 ug/ml [6]: 14.7%
- % lysis; ADCC-011 Calcein AM, huNK E:T 8, 1 ug/ml [6]: 22.4%
- % lysis; ADCC-012 Calcein AM, huNK E:T 10, 0.001 ug/ml [6]: 33.1%
- % lysis; ADCC-012 Calcein AM, huNK E:T 10, 0.005 ug/ml [6]: 39.3%
- % lysis; ADCC-012 Calcein AM, huNK E:T 10, 0.01 ug/ml [6]: 50.2%
- % lysis; ADCC-012 Calcein AM, huNK E:T 10, 1 ug/ml [6]: 66%
- % lysis; ADCC-012 Calcein AM, huNK E:T 10, 10 ug/ml [6]: 50.8%
- % lysis; ADCC-013 51Cr, PBMC E:T 100, 0.001 ug/ml [6]: 3.13%
- % lysis; ADCC-013 51Cr, PBMC E:T 100, 0.01 ug/ml [6]: 12.8%
- % lysis; ADCC-013 51Cr, PBMC E:T 100, 0.1 ug/ml [6]: 27.2%
- % lysis; ADCC-013 51Cr, PBMC E:T 100, 1 ug/ml [6]: 32.3%
- Average % lysis at 1 ug/ml concentration of mAbs (% lysis - % lysis IgG1) [6]: 47.2%
